The term stoichiometry N denotes a count of units in the complex or per binding partner.

B3: Glucose-6-phosphate dehydrogenase (G6PDH) from Leuconostoc mesenteroides, aggregated (enzyme, UniProt P11411 1-486, looked up)
chain: MVSEIKTLVTFFGGTGDLAKRKLYPSVFNLYKKGYLQKHFAIVGTARQALNDDEFKQLVRDSIKDFTDDQAQAEAFIEHFSYRAHDVTDAASYAVLKEAIEEAADKFDIDGNRIFYMSVAPRFFGTIAKYLKSEGLLADTGYNRLMIEKPFGTSYDTAAELQNDLENAFDDNQLFRIDHYLGKEMVQNIAALRFGNPIFDAAWNKDYIKNVQVTLSEVLGVEERAGYYDTAGALLDMIQNHTMQIVGWLAMEKPESFTDKDIRAAKNAAFNALKIYDEAEVNKYFVRAQYGAGDSADFKPYLEELDVPADSKNNTFIAGELQFDLPRWEGVPFYVRSGKRLAAKQTRVDIVFKAGTFNFGSEQEAQEAVLSIIIDPKGAIELKLNAKSVEDAFNTRTIDLGWTVSDEDKKNTPEPYERMIHDTMNGDGSNFADWNGVSIAWKFVDAISAVYTADKAPLETYKSGSMGPEASDKLLAANGDAWVFKG
notes: glucose-6-phosphate dehydrogenase, Leuconostoc mesenteroides; Thermally denatured and aggregated before the co-sedimentation assay; native G6PDH served as the control that was subtracted; also called G6PDH aggregates; source: bought: Worthington

Series [1] concerns the molecule itself. Nature of the series: static light scattering; 15 µM DNAJA2 in refolding buffer (20 mM Hepes-KOH pH 7.6, 50 mM KCl, 5 mM MgCl2, 2 mM DTT) heated to 40 °C and cooled back to 25 °C; oligomers to dimers.
Series [2] has as its target B3. Briefly: co-sedimentation; 2 µM Hsc70, 1 µM J-domain protein (DNAJB1, DNAJA2ΔCD or DNAJA2wt), 0.4 µM Apg2, 0.4 µM aggregated or native G6PDH; pellets on SDS-PAGE, band intensities; amounts in pellets with native G6PDH subtracted. As to conditions: both partners purified.
Series [3] deals with the molecule itself. Briefly: negative-stain electron microscopy; samples on carbon-coated grids, 2% uranyl acetate; 15 µM protein; tubular oligomers of dimers.
A further series has as its target T1, Hsc70wt (human, UniProt P11142 1-646).
T1 construct: Hsc70 (HSPA8), the constitutively expressed Hsp70 isoform, cDNA from Addgene; also called HSPA8
Nature of the series: co-sedimentation; 2 µM Hsc70, 1 µM J-domain protein (DNAJB1, DNAJA2ΔCD or DNAJA2wt), 0.4 µM Apg2, 0.4 µM aggregated or native G6PDH; pellets on SDS-PAGE, band intensities; amounts in pellets with native G6PDH subtracted. As to conditions: both partners purified.

Series [4] deals with the molecule itself. Nature of the series: dynamic light scattering; 30 µM protein in 20 mM Hepes-KOH pH 7.6, 50 mM KCl, 2 mM DTT; volume-based size distributions; the wt also with 300 mM NaCl, 5% 1,6-hexanediol or at 40 °C, which shift it to smaller particles; self-association: dimer and dimers to larger oligomers.
Series [5] concerns the molecule itself. Briefly: cross-linking; 2 µM protein, 0.005% glutaraldehyde, 15 min at 4 °C in 20 mM Hepes pH 7.6, 50 mM KCl, 5 mM MgCl2, 2 mM DTT; SDS-PAGE, Coomassie; monomer, dimer and oligomer bands.

T1 sequence (P11142 whole entry, canonical isoform): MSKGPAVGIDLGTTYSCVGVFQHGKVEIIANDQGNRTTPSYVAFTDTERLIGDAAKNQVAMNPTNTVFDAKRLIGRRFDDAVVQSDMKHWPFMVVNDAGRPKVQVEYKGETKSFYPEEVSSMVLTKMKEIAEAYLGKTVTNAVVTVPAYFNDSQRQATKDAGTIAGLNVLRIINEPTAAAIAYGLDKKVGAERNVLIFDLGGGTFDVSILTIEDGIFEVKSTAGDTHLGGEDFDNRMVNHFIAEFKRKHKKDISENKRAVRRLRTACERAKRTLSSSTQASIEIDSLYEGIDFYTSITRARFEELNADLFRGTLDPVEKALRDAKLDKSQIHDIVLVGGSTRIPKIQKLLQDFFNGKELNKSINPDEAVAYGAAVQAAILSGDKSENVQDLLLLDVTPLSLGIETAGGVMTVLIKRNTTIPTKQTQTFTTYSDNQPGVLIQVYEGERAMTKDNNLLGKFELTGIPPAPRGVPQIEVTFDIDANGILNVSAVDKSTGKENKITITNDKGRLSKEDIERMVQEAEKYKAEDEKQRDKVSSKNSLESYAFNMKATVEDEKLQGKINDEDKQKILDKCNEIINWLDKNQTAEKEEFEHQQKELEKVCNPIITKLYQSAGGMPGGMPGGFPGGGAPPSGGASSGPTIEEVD

B1: DNAJA2wt (natural protein)
chain: not shown
notes: DNAJA2, human class A J-domain protein; last residue Q412; Dimers that assemble into tubular oligomers; For cryo-EM and XL-MS the sample was cross-linked with BS3; The Ni-NTA-Nanogold is said to label Hsc70 specifically, so the His6-SUMO tag was probably removed; also called DnaJ2A
In the case of B1, the “t1/2 of the temperature-induced dissociation of the oligomers (40 °C)” value in series [1] amounted to 2.3 min. In addition, the “fold reduction of the aggregate-bound amount against DNAJB1” value in series [2] is roughly 2 fold.

B2: DNAJA2ΔG/FR (natural protein)
chain: not shown
notes: DNAJA2, human, lacking the glycine/phenylalanine-rich region (deletion of residues 77 to 101); For cryo-EM and XL-MS the sample was cross-linked with BS3; also called DnaJA2∆G/FR; DnJA2ΔG/FR
For B2, in series [3], the binding result is reported as “binds”.

As for B3, in the series with Hsc70wt, the binding result is “binds”.

B4: DNAJA2ΔZFLR (natural protein)
chain: not shown
notes: DNAJA2, human, lacking the Zn-finger-like region (deletion of residues 141 to 209)
Regarding B4, the “stoichiometry N” value in series [4] was 2; in series [5] it was no more than 2.

B5: DNAJA2ΔCD (domain or fragment)
chain: not shown
notes: DNAJA2, human, lacking the disordered C-terminal domain (deletion of residues 361 to 412, V361 to Q412)
For B5, the binding result in series [2] is given as “binds”. Moreover, in series [5], the “stoichiometry N” value came to 2.

B6: DNAJA2LQ (natural protein)
chain: not shown
notes: DNAJA2, human, with L135 and Q136 in the CTDI mutated to Glu
B6: the “stoichiometry N” value in series [5] was no more than 2.

The values above are taken from paper PMC10480186, “The self-association equilibrium of DNAJA2 regulates its interaction with unfolded substrate proteins and with Hsc70” (Nature Communications, 2023).
